Experimental data as given in US20220233650A1.

Biological target: recombinant Factor VIII Fc fusion protein (rFVIIIFc) (human) [IgG part: P0DOX5]
Assay: cell-based or functional assay

percent of cells characterized as osteoclasts at day 7 after rFVIIIFc together with VWF (14.2% with rFVIIIFc alone): 45.7%
Substance: von Willebrand Factor (VWF) (from UniProt P04275 764-2813)
